Here are results for one molecule from patent publication US20240067729A1 (PALLEON PHARMACEUTICALS, published 2024).

As a reminder, the IC50 is the midpoint of a concentration-inhibition curve. Broadly, the koff is the first-order rate constant of dissociation. The low end stands for a long-lived complex, the high end for a short-lived complex. Usually kon stands for the second-order rate constant of association. Low values mean slow association, high ones fast association.

Experiment [1] concerns the target human PD-L1 (hPD-L1) coated on ELISA wells, Example 7 (human, UniProt Q9NZQ7 19-238, limits assumed). Description: blocking ELISA: titrated + biotinylated hPD-1-Fc 1 ug/mL on coated hPD-L1. An excerpt: The plate was developed with TMB and Stop buffer and the absorbance at 450 nm was read using a SpectraMax plate reader.
(In general: An ELISA detects its analyte on a solid surface through an enzyme-linked reagent.)

For experiment [2], the target named is T1, cynomolgus PD-L1, his tagged (cPD-L1-his) (cynomolgus (Macaca fascicularis), UniProt G7PSE7 19-238).
T1 construct: also called cyPD-L1-His; Cyno PD-L1
T1 sequence (G7PSE7 entry or part of it limits assumed, form in doubt): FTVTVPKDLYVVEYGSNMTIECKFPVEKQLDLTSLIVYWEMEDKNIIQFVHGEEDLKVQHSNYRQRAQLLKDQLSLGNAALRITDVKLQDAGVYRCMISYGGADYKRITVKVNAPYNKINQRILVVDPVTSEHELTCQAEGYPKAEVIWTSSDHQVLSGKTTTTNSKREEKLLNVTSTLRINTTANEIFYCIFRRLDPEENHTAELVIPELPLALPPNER
Description: BLI (ForteBio Octet), cynomolgus PD-L1. For orientation: In BLI a coated tip is dipped into the sample, and binding shifts an interference pattern.

Experiment [3] has as its target T2, human PD-L1, his tagged (hPD-L1-his) (human, UniProt Q9NZQ7 19-238, limits assumed).
T2 construct: also called huPD-L1-His; recombinant human PD-L1; not shown: his tag
Description: BLI (ForteBio Octet), human PD-L1.

Experiment [4] concerns the target T3, human PD-L1 expressed on cells (HCC827, NCI-H292, CHO-PD-L1, engineered CHO-K1) (human, UniProt Q9NZQ7 19-290).
T3 construct: whole, on cells; Endogenous on the human lung lines HCC827 and NCI-H292; transfected on CHO cells; also called PD-L1 on HCC827; PD-L1 on NCI-H292
Nature of the experiment: flow cytometry on HCC827 cells, apparent Kd; calculated using data points up to 3.7 nM. On the procedure:
(§1) The ability of PD-L1 antibody sialidase conjugates to bind PD-L1 on HCC827 and NCI-H292 cells was examined next. […] After washing with staining buffer, cells were incubated with AF647 Goat anti-human IgG(H+L) in staining buffer at 4° C. for 30 min. After 2× wash with staining buffer, cells were fixed and run on FACSCelesta.

The target of experiment [5] is T3, human PD-L1 expressed on cells (HCC827, …). Description: flow cytometry on NCI-H292 cells, apparent Kd; calculated using data points up to 3.7 nM. The procedure:
as §1

Experiment [6] has the same target. Nature of the experiment: cell-based or functional assay.

T2 sequence (Q9NZQ7 19-238 limits assumed): as the sequence (G7PSE7 entry or part of it limits assumed, form in doubt) above, with T33A, S34A, N62S, Q68R, R82Q, L173F, A185T, I192T, L215H counted along it
T3 sequence (Q9NZQ7 19-290, change not shown): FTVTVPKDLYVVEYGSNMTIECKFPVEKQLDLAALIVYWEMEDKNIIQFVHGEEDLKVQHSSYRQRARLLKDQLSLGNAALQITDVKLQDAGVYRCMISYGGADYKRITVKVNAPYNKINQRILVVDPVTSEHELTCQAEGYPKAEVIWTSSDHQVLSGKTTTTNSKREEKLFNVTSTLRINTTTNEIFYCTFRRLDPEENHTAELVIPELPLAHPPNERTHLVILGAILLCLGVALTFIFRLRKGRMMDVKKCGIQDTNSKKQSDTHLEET
Chain of human PD-L1 (hPD-L1) coated on ELISA wells, Example 7 (Q9NZQ7 19-238 limits assumed): as the sequence (G7PSE7 entry or part of it limits assumed, form in doubt) above, with T33A, S34A, N62S, Q68R, R82Q, L173F, A185T, I192T, L215H counted along it

B1: h769.T-1A (antibody, V domains shown)
VH: EVQLVQSGAEVKKPGATVKISCKVSGFNIKDTYMHWVQQAPGKGLEWMGLIDPANDNTIYAEKFQGRVTITADTSTDTAYMELSSLRSEDTAVYYCAREGYGGSYGEGYWGQGTLVTVSS
VL: EIVMTQSPPTLSLSPGERVTLSCRASQSVSNDLSWYQQKPGQAPRLLIYYASIRFTGIPARFSGSGSGTDFTLTISSLQPEDFAVYYCQQDYTSPWTFGQGTKVEIK
notes: bivalent
With B1, in experiment [1], the IC50 turned out to be 1.44 nM. Further, the Kd in experiment [2] is 1.53 nM; in experiment [3], 2.13 nM; in experiment [4], 0.125 nM; in experiment [5] it was 0.0973 nM. For the same molecule, the koff turned out to be 0.000443 s⁻¹ in experiment [2] and 0.000728 s⁻¹ in experiment [3]. The kon in experiment [2] was 297000 M⁻¹ s⁻¹; in experiment [3], 346000 M⁻¹ s⁻¹. In addition, in experiment [6], the “EC50 (NFAT-luciferase fold induction)” value is 0.56 nM.
